Our source for the stoichiometry N values is publication PMC7572813.

In this assay the target is B/Phuket/3073/2013 NA ectodomain (residues W80-L466) (influenza B virus B/Phuket/3073/2013). In words: cryo-EM structure.

Turning to “B/Phuket/3073/2013 NA ectodomain (residues W80-L466) (domain or fragment)”, the stoichiometry N came out at 4.
